# Measurements published in US20160194641, “G-RICH isoDNA SEQUENCES FORMING G-QUADRUPLEX STRUCTURE, THEIR FUNCTION AS [sequence] AND A PROCESS FOR THE PREPARATION THEREOF” (COUNCIL OF SCIENTIFIC & INDUSTRIAL RESEARCH, published 2016).
# Target: thrombin (Bos taurus, UniProt P00735;P00735 P00735:318-366,P00735:367-625)
# Assay: CD titration at 295 nm, low temperature, without K+; signal increases with thrombin; Tm with thrombin 22 C (53 C with K+)
# Conditions: tags: copies: 1; antiparallel unimolecular G4
# Procedure: CD spectra were recorded on Jasco J-815 CD Spectrometer equipped with a Jasco PTC-424S/15 peltier system. 2 mm path-length quartz cuvettes were used for a sample volume 500 μl and strand concentration of 5 μM in 10 mM Na/K-phosphate buffer (pH 7.5) containing 100 mM NaCl/KCl respectively. Oligomers prepared in buffer were annealed by heating at 95° C. for 5 minutes, then slowly cooled to room temperature, followed by refrigeration for 5-6 hours before use. Spectral scans were collected over a wavelength range 200-320 nm at a scanning rate of 100 nm min⁻¹. The spectra were collected as an average of three scans for each sample.
# Biochem. Biophys. Res. Commun. 352, 812-817 (2007). […] An increase in the CD signal amplitude upon incremental addition of thrombin is observed even at relatively low concentrations of thrombin. In case of isod-TBA-2 and isod-TBA-3, CD band at 295 nm and G-quadruplex structure was not evident in the absence of either thrombin or K⁺, which is also supported by ¹H NMR. Upon incremental addition of thrombin, the CD maximum at 295 nm emerges for isod-TBA-2 and isod-TBA-3. […] Further, the temperature-dependent stability of the quadruplex structure was followed by recording the CD amplitude at 295 nm with increasing temperature. The strength of d-TBA-1 G-quadruplex was the highest with Tₘ=22° C., followed by iso-d-TBA-3 (Tₘ 13° C.) and iso-d-TBA-2 (Tₘ<10° C.). […]
binder,measurement,value
GGTTGGTGTGGTTGG (structured_DNA) [d-TBA-1],binding result,binds
